Values quoted from earlier work, collected in article PMC4785862.
Read-outs that look alike come from different tables or passages of the source.

Legend:
IL-8 (Homo sapiens) [1] = target: IL-8 (Homo sapiens) (UniProt P10145)
IL-8 (Homo sapiens) [2] = target: IL-8 (Homo sapiens) (UniProt P10145); remark: listed apart in the source

Sequence of IL-8 (Homo sapiens) (P10145 28-99): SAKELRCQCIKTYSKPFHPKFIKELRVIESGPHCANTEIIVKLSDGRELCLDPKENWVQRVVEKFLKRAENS
Sequence of CXCR1 (P25024 whole entry): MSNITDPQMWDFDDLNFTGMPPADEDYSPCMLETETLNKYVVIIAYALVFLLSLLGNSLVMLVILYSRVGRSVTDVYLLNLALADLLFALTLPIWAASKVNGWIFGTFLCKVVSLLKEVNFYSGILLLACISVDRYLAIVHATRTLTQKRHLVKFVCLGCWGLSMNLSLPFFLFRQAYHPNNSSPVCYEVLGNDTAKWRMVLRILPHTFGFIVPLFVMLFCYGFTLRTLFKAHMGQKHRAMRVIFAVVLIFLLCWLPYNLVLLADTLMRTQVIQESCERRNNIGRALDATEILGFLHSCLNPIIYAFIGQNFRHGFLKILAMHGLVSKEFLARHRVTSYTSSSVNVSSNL
Sequence of CXCR2 (P25025 whole entry): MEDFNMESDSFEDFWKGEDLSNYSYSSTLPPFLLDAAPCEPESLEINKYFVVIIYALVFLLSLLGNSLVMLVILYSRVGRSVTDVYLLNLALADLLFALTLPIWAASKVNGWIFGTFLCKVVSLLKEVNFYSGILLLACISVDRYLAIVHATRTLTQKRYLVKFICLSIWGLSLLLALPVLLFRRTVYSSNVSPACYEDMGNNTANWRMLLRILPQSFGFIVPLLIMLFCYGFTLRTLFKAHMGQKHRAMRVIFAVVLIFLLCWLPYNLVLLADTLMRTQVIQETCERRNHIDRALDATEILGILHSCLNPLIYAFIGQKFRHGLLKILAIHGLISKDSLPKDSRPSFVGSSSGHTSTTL

Substance | Kd (IL-8 (Homo sapiens) [1]) [nM] | Kd (IL-8 (Homo sapiens) [2]) [nM]
CXCR2 (from UniProt P25025) | 2.5 | –
CXCR1 (from UniProt P25024) | – | 5
